# From article PMC1869045 (Journal of thrombosis and haemostasis : JTH, 2007)
# Target: the molecule itself
# Experiment: FRET or BRET
protein,measurement,value
"GPVI BRET pair (GPVI-GFP and GPVI-luciferase) (receptor, UniProt Q9HCN6 21-339, looked up) QSGPLPKPSLQALPSSLVPLEKPVTLRCQGPPGVDLYRLEKLSSSRYQDQAVLFIPAMKRSLAGRYRCSYQNGSLWSLPSDQLELVATGVFAKPSLSAQPGPAVSSGGDVTLQCQTRYGFDQFALYKEGDPAPYKNPERWYRASFPIITVTAAHSGTYRCYSFSSRDPYLWSAPSDPLELVVTGTSVTPSRLPTEPPSPVAEFSEATAELTVSFTNEVFTTETSRSITASPKESDSPAGPARQYYTKGNLVRICLGAVILIILAGFLAEDWHSRRKRLRHRGRAVQRPLPPLPPLPLTRKSNGGQDGGRQDVHSRGLCS",stoichiometry N,2
